Reference: the supplement of paper PMC9233669
Fewer inactive variants are shown than the library holds.

Key:
[1] = tested on: biotinyl-Trp-oxazolone; experiment: self-aminoacylation, catalytic enhancement (BWO) (fold over background); higher = more active; k-Seq, kA / k0A0; sequences stand for … in GGGAAUGGAUCCACAUCUACGAAUUC…UUCACUGCAGACUUGACGAAGCUG
Method in brief: (§1)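 The uncatalyzed rate is the low-activity peak of a bimodal Gaussian fit, and catalytic enhancement is median kA divided by it. The kA values came from pseudo-first-order fits, with 1000 bootstraps, of per-sequence fraction reacted measured by streptavidin capture, triplicate qPCR and Illumina sequencing. Mutagenized RNA pools with a 21-nt variable region (0.43 μM) were reacted with each biotinyl-aminoacyl-oxazolone at 2–1250 μM in 50 μL HEPES/NaCl/KCl/MgCl2/CaCl2 buffer with 5% acetonitrile, pH 6.9–7.0, for 90 minutes at room temperature.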

[2] = tested on: biotinyl-Phe-oxazolone; experiment: self-aminoacylation, catalytic enhancement (BFO) (fold over background); higher = more active; k-Seq, kA / k0A0; sequences stand for … in GGGAAUGGAUCCACAUCUACGAAUUC…UUCACUGCAGACUUGACGAAGCUG
Method in brief: as §1

[3] = tested on: biotinyl-Leu-oxazolone; experiment: self-aminoacylation, catalytic enhancement (BLO) (fold over background); higher = more active; k-Seq, kA / k0A0; sequences stand for … in GGGAAUGGAUCCACAUCUACGAAUUC…UUCACUGCAGACUUGACGAAGCUG
Method in brief: as §1

[4] = tested on: biotinyl-Met-oxazolone; experiment: self-aminoacylation, catalytic enhancement (BMO) (fold over background); higher = more active; k-Seq, kA / k0A0; sequences stand for … in GGGAAUGGAUCCACAUCUACGAAUUC…UUCACUGCAGACUUGACGAAGCUG
Method in brief: as §1

[5] = tested on: biotinyl-Val-oxazolone; experiment: self-aminoacylation, catalytic enhancement (BVO) (fold over background); higher = more active; k-Seq, kA / k0A0; sequences stand for … in GGGAAUGGAUCCACAUCUACGAAUUC…UUCACUGCAGACUUGACGAAGCUG
Method in brief: as §1

[6] = tested on: biotinyl-Ile-oxazolone; experiment: self-aminoacylation, catalytic enhancement (BIO) (fold over background); higher = more active; k-Seq, kA / k0A0; sequences stand for … in GGGAAUGGAUCCACAUCUACGAAUUC…UUCACUGCAGACUUGACGAAGCUG
Method in brief: as §1

Sequence	self-aminoacylation [1]	self-aminoacylation [2]	self-aminoacylation [3]	self-aminoacylation [4]	self-aminoacylation [5]	self-aminoacylation [6]
AUUACUCAGGUCAUCGAGUGA [Fam2.1 aminoacylation ribozyme variant]	4.11	13.2	3.72	3.58	2.57	2.41
AUUACUCUGAUCAUCGAGUGA [Fam2.1 aminoacylation ribozyme variant]	6.7	19.3	5.35	5.85	2.95	2.93
AUUACUCUGGGCAUCGAGUGA [Fam2.1 aminoacylation ribozyme variant]	7.68	41.2	6.57	6.39	3.11	3.71
AUUACUCUGGUAAUCGAGUGA [Fam2.1 aminoacylation ribozyme variant]	9.06	45.5	8.85	7.65	3.46	3.66
AUUACUCUGGUCAUAGAGUGA [Fam2.1 aminoacylation ribozyme variant]	6.05	20.8	5.04	4.99	2.79	3.03
AUUACUCUGGUCAUCGAGAGA [Fam2.1 aminoacylation ribozyme variant]	0.523	1.03	0.713	0.867	0.908	0.907
AUUACUCUGGUCAUCGAGUCA [Fam2.1 aminoacylation ribozyme variant]	0.628	1.04	0.928	0.944	0.978	1.09
AUUACUUUGGUCAUCGAGUGA [Fam2.1 aminoacylation ribozyme variant]	8.06	25.8	7.1	6.07	3.57	3.55
AUUAGCCGGGUCAUCGAGUGA [Fam2.1 aminoacylation ribozyme variant]	7.69	40.5	6.37	6.22	4.51	3.91
AUUAGCCUGGCCAUCGAGUGA [Fam2.1 aminoacylation ribozyme variant]	6.06	26.4	4.51	5.44	3.54	3.83
AUUAGCCUGGUCAGCGAGUGA [Fam2.1 aminoacylation ribozyme variant]	4.85	9.96	5.47	3.65	3.39	3.09
AUUAGCCUGGUCAUCGAGUAA [Fam2.1 aminoacylation ribozyme variant]	0.949	1.85	1.57	1.31	1.51	1.52
AUUAGCCUGGUCAUCGAGUUA [Fam2.1 aminoacylation ribozyme variant]	0.867	1.15	1.27	1.41	1.24	1.36
AUUAGCCUGGUCAUUGAGUGA [Fam2.1 aminoacylation ribozyme variant]	12.3	62.6	10.3	9.25	5.01	4.89
AUUAGCCUGGUCUUCGAGUGA [Fam2.1 aminoacylation ribozyme variant]	6.87	35.9	5.63	5.53	3.28	3.5
AUUAGCCUGGUUAUCGAGUGA [Fam2.1 aminoacylation ribozyme variant]	13.7	74.4	12.2	11.3	5.37	5.67
AUUAGCGUGGUCAUCGAGUGA [Fam2.1 aminoacylation ribozyme variant]	5	13.5	4.67	3.55	3.1	2.8
AUUAUCAUGGUCAUCGAGUGA [Fam2.1 aminoacylation ribozyme variant]	8.2	10.8	6.75	6.24	3.44	3.56
AUUAUCCAGGUCAUCGAGUGA [Fam2.1 aminoacylation ribozyme variant]	7.93	30.3	6.32	6.52	3.41	3.13
AUUAUCCUGCUCAUCGAGUGA [Fam2.1 aminoacylation ribozyme variant]	3.08	2.88	2.77	2.69	1.8	1.76
AUUAUCCUGGUCACCGAGUGA [Fam2.1 aminoacylation ribozyme variant]	8.39	54	8.43	7.82	3.84	3.11
AUUAUCCUGGUCAUCGAGUGU [Fam2.1 aminoacylation ribozyme variant]	9.45	15.3	10.2	11.1	4.73	4.25
AUUAUCCUGGUCCUCGAGUGA [Fam2.1 aminoacylation ribozyme variant]	6.54	21.9	5.19	4.56	2.33	2.4
AUUAUCCUGGUCUUCGAGUGA [Fam2.1 aminoacylation ribozyme variant]	7.67	37.6	5.95	5.8	2.93	3.26
AUUAUCCUGGUUAUCGAGUGA [Fam2.1 aminoacylation ribozyme variant]	14.7	71.3	13.5	12.2	4.88	5.55
AUUAUGCUGGUCAUCGAGUGA [Fam2.1 aminoacylation ribozyme variant]	5.2	14.9	4.22	4.1	2.69	3.15
